The values that follow come from patent US11046771 (dated 2021).

As a reminder, the EC50 is the concentration at which the effect is half-maximal. Read a low EC50 as an effect from little substance.

For test [1], the target named is T1, HER2 (cell surface) (human, UniProt P04626). Nature of the test: FACS, AU565 cells. On the technique in general: In flow cytometry, cells or beads pass a laser one at a time.
Test [2] deals with T1, HER2 (cell surface). The experiment in a line: FACS, A431 cells.

B1: 098 (PC1014-098) (antibody, V domains shown)
VH: EVQLLESGGGLVQPGGSLRLSCAASGFTFSNYGMSWVRQAPGKGLEWVSAISGSAYSTYYADSVKGRFTISRDNSKNTLWLQMNSLRAEDTAVYYCAKAHYHGSGSYYTLFDYWGQGTLVTVSS
VL: DIQMTQSPSSLSASVGDRVTITCRASQGISSWLAWYQQKPEKAPKSLIYAASSLQSGVPSRFSGSGSGTDFTLTISSLQPEDFATYYCQQYNSYPYTFGQGTKLEIK
As to B1, the EC50 in the test with HER2 (cell surface) [1] turned out to be 0.336 µg/mL; with HER2 (cell surface) [2], 0.068 µg/mL.
